Earlier results, collected in publication PMC6586500.

Target: Histone H3K9me3 peptide (Homo sapiens) (UniProt P68431)

CBX5, sequence (P45973 whole entry): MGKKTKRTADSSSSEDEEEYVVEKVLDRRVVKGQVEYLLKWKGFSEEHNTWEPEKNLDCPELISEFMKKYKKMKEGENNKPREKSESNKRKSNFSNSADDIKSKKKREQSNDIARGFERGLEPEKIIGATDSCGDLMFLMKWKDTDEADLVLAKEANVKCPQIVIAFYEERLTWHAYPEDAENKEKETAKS

Kd: 30 µM
Substance: CBX5 (from UniProt P45973)
